To fix the notation:
B1: 4B4 (antibody, IgG4, V domains shown)
VH: QVLLIQSGAEVKKPGASVQVSCKASGYTFTNYGVIWVRQAPGQGLEYMGWISAYNGNTNYAQKLQDRVTMTSDTSTTTAYMELRSLRSDDTAVYYCARELGSSFDYWGQGTLVTVSS
VL: SYELTQPPSVSVSPGQTARITCSGDALPKKYAYWYQQKSGQAPVLVIYEDIKRPSGIPERFSGSSSGTMATLTISGAQVEDEADYYCFSTDNSGDHSVFGGGTKLTVL
notes: Fully human; used for IgG4 rows and where no isotype is printed; also called 4B4 IgG4; 4B4.1
B2: 21H3 (antibody, IgG4, V domains shown)
VH: QVQLVQSGAEVKKPGASVKVSCKASGYTFTNYGITWVRQAPGQGPEWMGWISAYNGNTNYAQKLQDRVTVTTDTSTSTAYMELRSLRSDDTAVYYCARDRVPRIPVTTEAFDIWGQGTMVTVSS
VL: QSVLTQPPSASGTPGQRVTISCSGSSSNIGSYFVYWYQQLPGTAPKLLIYRNNQRPSGVPDRFSGSESGTSASLAISGLRSEDEADYYCAAWDDSLSGHWVFGGGTRLTVL
notes: Fully human; used for IgG4 rows and where no isotype is printed; also called 21H3 IgG4
B3: 2H10 (antibody, IgG4, V domains shown)
VH: QVQLVESGGGVVQPGRSLRLSCAASGFTFSRHGMHWVRQAPGKGLEWVAVVWFDGSNIYYADSVKGRFTISRDNSKNTLYLQMNSLRAEDTAMYYCARDSRIAAADYWGQGTLVTVSS
VL: SYELTQPPSVSVSPGQTVSITCSGDKLGDKYVCWYQQKPGQSPVLVIYQESKRPSGIPERFSGSSSGNTATLTISGTQAMDEADYYCQTWDSSLVVFGGGTKLTVL
notes: Fully human; used for IgG4 rows and where no isotype is printed; also called 2H10 IgG4
B4: 9G8 (antibody, IgG4, V domains shown)
VH: QLQLQESGPGLVKPSETLSLSCTVSGGSISSSSSYWGLIRQPPGKGLEWIGSIYYSGSTYYSPSLKSRVSISVDTSKNQFSLKLSSVTAADTAVYFCARQGYGGHPDVFDIWGQGTMVTVSS
VL: SSELTQSPSVSVSPGQTARITCSGDKLGDVYVCWYQQKTGQSPVLVIYEDTKRPSGIPERFSGSNSGNTATLTISGTQVMDEADYYCQAWDSTTAVIFGGGTKLTVL
notes: Fully human; used for IgG4 rows and where no isotype is printed; also called 9G8 IgG4

Sequence of DLL4 extracellular domain (R&D systems, catalog #1506-D4/CF) (Q9NR61 27-529 limits assumed): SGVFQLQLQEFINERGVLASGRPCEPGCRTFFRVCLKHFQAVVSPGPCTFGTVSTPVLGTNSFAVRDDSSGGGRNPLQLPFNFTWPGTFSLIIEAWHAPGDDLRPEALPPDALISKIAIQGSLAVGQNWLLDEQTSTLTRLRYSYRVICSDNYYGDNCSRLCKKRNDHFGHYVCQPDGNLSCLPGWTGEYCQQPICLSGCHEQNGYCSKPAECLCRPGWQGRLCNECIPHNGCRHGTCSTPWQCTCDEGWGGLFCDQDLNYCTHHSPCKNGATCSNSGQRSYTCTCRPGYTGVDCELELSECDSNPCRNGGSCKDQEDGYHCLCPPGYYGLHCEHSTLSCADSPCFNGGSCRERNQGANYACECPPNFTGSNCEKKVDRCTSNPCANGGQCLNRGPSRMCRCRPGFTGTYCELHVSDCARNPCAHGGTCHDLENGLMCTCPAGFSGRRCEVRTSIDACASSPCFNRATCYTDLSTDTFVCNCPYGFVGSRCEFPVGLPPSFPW

The first experiment has as its target DLL4 extracellular domain (R&D systems, catalog #1506-D4/CF) (UniProt Q9NR61 27-529, limits assumed). Kind of experiment: cell-based or functional assay.
Regarding B1, the “% inhibition 1 µg/ml, AVERAGE (HUVEC proliferation on coated DLL4)” value (shortened to “% inhibition 1 µg/ml, AVERAGE”) is 93%; the “% inhibition 1 µg/ml, N = 1 (HUVEC proliferation on coated DLL4)” value was 101%; the “% inhibition 1 µg/ml, N = 2 (HUVEC proliferation on coated DLL4)” value was determined as 84%; the “% inhibition 10 µg/ml, AVERAGE (HUVEC proliferation on coated DLL4)” value (shortened to “% inhibition 10 µg/ml, AVERAGE”) is 97%. The “% inhibition 10 µg/ml, N = 1 (HUVEC proliferation on coated DLL4)” value was 102% and the “% inhibition 10 µg/ml, N = 2 (HUVEC proliferation on coated DLL4)” value came out at 92%.

B2: the “% inhibition 1 µg/ml, AVERAGE” value came to 93%; the “% inhibition 1 µg/ml, N = 1 (HUVEC proliferation on coated DLL4)” value turned out to be 86%; the “% inhibition 1 µg/ml, N = 2 (HUVEC proliferation on coated DLL4)” value is 99%; the “% inhibition 10 µg/ml, AVERAGE” value turned out to be 89%. Also, the “% inhibition 10 µg/ml, N = 1 (HUVEC proliferation on coated DLL4)” value is 88% and the “% inhibition 10 µg/ml, N = 2 (HUVEC proliferation on coated DLL4)” value amounted to 89%.

With B3, the “% inhibition 1 µg/ml, AVERAGE” value was determined as 93%; the “% inhibition 1 µg/ml, N = 1 (HUVEC proliferation on coated DLL4)” value was 98%; the “% inhibition 1 µg/ml, N = 2 (HUVEC proliferation on coated DLL4)” value turned out to be 87%; the “% inhibition 10 µg/ml, AVERAGE” value was determined as 103%. Moreover, the “% inhibition 10 µg/ml, N = 1 (HUVEC proliferation on coated DLL4)” value is 110% and the “% inhibition 10 µg/ml, N = 2 (HUVEC proliferation on coated DLL4)” value is 95%.

As for B4, the “% inhibition 1 µg/ml, AVERAGE” value is 62%; the “% inhibition 1 µg/ml, N = 1 (HUVEC proliferation on coated DLL4)” value amounted to 52%; the “% inhibition 1 µg/ml, N = 2 (HUVEC proliferation on coated DLL4)” value came to 71%; the “% inhibition 10 µg/ml, AVERAGE” value was determined as 77%. Besides, the “% inhibition 10 µg/ml, N = 1 (HUVEC proliferation on coated DLL4)” value is 72% and the “% inhibition 10 µg/ml, N = 2 (HUVEC proliferation on coated DLL4)” value was 82%.

The target in another experiment is T1, human Dll1 (human, UniProt O00548 18-723).
T1 construct: whole, on cells
T1 sequence (looked up): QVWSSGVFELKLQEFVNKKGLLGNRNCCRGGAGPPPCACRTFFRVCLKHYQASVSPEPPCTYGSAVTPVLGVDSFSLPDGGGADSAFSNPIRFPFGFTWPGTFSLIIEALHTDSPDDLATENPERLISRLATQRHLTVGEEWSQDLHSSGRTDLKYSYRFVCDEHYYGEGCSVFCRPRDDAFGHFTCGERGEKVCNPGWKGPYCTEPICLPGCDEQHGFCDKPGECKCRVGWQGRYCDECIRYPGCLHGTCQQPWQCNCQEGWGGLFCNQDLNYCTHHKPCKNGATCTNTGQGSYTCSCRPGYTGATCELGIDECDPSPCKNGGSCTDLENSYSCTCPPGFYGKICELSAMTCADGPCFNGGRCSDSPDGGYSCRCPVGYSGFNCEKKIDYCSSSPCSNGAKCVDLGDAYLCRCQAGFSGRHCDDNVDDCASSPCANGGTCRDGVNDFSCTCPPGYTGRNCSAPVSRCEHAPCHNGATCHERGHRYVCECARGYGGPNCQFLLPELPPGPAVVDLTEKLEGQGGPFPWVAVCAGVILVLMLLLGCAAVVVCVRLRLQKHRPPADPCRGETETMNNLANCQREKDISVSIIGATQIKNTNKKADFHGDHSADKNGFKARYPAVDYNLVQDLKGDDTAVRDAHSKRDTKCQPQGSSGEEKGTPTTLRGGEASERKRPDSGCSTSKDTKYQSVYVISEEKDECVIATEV
Kind of experiment: FACS, 15 µg/ml, 293T cells with human Dll1. In outline: (§1)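 First, cells were resuspended in PBS with 2% FCS at 50000 cells/well. Next, diluted purified anti-DLL4 antibodies were applied for 1 h at 4 °C. Finally, geometric mean fluorescence of target-transfected cells was compared with that of mock-transfected cells.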
As for B1, the “Dll1/293T X Geo mean” value stood at 25.9.

As to B2, the “Dll1/293T X Geo mean” value was determined as 32.4.

Consider B3, for which the “Dll1/293T X Geo mean” value stood at 44.1.

As for B4, the “Dll1/293T X Geo mean” value was found to be 32.3.

In another experiment the target is T2, human Jagged1 (human, UniProt P78504 34-1218).
T2 construct: whole, on cells
T2 sequence (P78504 34-1218): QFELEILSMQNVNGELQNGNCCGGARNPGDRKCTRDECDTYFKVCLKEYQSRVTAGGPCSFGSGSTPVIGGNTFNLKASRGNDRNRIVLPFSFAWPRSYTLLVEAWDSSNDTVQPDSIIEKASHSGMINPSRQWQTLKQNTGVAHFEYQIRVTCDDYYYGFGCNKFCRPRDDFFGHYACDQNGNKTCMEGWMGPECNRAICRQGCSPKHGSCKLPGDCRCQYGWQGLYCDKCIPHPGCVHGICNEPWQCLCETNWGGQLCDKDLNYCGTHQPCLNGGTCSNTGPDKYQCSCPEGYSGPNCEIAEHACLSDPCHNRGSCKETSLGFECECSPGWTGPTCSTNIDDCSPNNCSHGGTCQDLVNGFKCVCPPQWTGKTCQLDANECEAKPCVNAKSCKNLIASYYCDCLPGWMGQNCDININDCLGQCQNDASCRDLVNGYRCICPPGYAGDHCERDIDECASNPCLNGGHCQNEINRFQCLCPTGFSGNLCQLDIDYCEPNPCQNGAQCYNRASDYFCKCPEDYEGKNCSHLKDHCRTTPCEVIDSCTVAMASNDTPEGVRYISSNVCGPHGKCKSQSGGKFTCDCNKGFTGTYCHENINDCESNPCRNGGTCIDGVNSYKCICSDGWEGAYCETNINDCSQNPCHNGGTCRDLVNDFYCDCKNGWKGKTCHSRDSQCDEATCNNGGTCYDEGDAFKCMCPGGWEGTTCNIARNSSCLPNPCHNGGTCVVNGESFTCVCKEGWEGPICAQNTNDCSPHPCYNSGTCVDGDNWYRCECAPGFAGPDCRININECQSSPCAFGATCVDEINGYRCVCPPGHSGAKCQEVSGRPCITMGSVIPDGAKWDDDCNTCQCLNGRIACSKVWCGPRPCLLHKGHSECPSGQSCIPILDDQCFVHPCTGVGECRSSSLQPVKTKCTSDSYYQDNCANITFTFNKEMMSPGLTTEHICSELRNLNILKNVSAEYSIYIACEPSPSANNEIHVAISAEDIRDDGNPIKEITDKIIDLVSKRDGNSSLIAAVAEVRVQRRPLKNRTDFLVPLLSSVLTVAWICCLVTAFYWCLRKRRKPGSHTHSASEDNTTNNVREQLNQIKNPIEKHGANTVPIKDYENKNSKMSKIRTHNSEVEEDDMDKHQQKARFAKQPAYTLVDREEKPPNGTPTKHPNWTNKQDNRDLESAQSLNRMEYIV
Kind of experiment: FACS, 5 µg/ml, 293T cells with human Jagged1. In outline: as §1
In general terms: In flow cytometry, cells or beads pass a laser one at a time.
In the case of B1, the “Jagged1/293T X Geo mean” value is 16.8.

Consider B2, for which the “Jagged1/293T X Geo mean” value amounted to 15.5.

For the molecule B3, the “Jagged1/293T X Geo mean” value was 9.28.

On to B4, for which the “Jagged1/293T X Geo mean” value stood at 17.4.

For another experiment, the target named is T2, human Jagged1. Kind of experiment: FACS, 5 µg/ml, 293T cells with human Jagged1 vs mock. In outline: as §1
Take B1: the Jagged1/mock ratio is 1.09.

Consider B2, for which the Jagged1/mock ratio amounted to 1.12.

For the molecule B3, the Jagged1/mock ratio was 1.26.

With B4, the Jagged1/mock ratio was 1.07.

The target of a further experiment is T3, full length human DLL4 (human, UniProt Q9NR61 27-685).
T3 construct: whole, on cells; also called native DLL4 expressed in HEK293 cells
T3 sequence (Q9NR61 27-685): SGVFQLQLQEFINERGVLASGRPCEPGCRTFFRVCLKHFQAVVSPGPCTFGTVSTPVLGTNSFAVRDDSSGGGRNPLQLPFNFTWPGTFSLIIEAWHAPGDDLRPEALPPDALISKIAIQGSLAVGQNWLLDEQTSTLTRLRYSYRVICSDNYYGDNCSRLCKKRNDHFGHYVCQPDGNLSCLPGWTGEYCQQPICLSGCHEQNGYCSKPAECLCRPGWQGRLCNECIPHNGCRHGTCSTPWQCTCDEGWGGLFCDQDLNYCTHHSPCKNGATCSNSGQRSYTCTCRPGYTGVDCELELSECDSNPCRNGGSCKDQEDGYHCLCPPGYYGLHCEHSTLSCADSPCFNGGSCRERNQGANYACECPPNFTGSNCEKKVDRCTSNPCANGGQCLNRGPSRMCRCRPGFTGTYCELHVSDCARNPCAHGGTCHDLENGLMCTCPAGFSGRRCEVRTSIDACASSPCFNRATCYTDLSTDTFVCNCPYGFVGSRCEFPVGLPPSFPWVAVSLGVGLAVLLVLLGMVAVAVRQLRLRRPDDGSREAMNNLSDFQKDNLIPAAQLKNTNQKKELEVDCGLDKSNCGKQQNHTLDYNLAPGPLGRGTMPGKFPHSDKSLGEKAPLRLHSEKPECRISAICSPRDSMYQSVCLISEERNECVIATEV
Kind of experiment: FMAT competition, supernatant vs Alexa-647 human Notch1/Fc, 293T cells with human DLL4. Summed up: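 293T cells transiently expressing full-length human DLL4, mixed with untransfected cells, preincubated with hybridoma supernatant for 1 h at 4 °C, then Alexa-647 Notch1/Fc (final 6.7 ng/ml) added for 3 h at 4 °C; bound ligand read by FMAT. % inhibition scaled between non-DLL4-binding supernatants and saturating unlabeled Notch1/Fc.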
With B1, the Mean % inhibition turned out to be 121%.

For B3, the “% inhibition n = 1” value is 107%, the “% inhibition n = 2” value came to 150%, the “% inhibition n = 3” value was determined as 124% and the Mean % inhibition was 127%.

As for B4, the “% inhibition n = 1” value was 112%, the “% inhibition n = 2” value was 98%, the “% inhibition n = 3” value is 143% and the Mean % inhibition is 118%.

Another experiment addresses T3, full length human DLL4. Kind of experiment: FMAT competition, purified antibody vs Alexa-647 human Notch1/Fc, 293T cells with human DLL4. Summed up:
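Blocking of Notch1/Fc binding to DLL4 was scored by FMAT fluorescence on DLL4-transfected 293T cells alongside untransfected cells. Antibodies, diluted serially from 5 μg/ml, were added for 1 h at 4 °C before Alexa-647 Notch1/Fc (100 ng/ml as added) for a further 3 h at 4 °C.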
For orientation: % inhibition means the drop in the measured response relative to a control, in per cent. As a reminder, the IC50 is the concentration that inhibits the measured activity by half. A higher IC50 goes with weaker potency in that assay. Take B1: the “% inhibition at 0.020 nM” value was determined as 14%, the “% inhibition at 0.070 nM” value amounted to 21%, the “% inhibition at 0.21 nM” value was 23% and the “% inhibition at 0.62 nM” value was 65%. For the same molecule, the “% inhibition at 1.9 nM” value came out at 95%, the “% inhibition at 5.6 nM” value worked out at 127%, the “% inhibition at 16.7 nM” value was found to be 136% and the half-maximal inhibitory concentration (IC50) was determined as 0.72 nM.

As for B2, the “% inhibition at 0.020 nM” value was -17%, the “% inhibition at 0.070 nM” value is -2%, the “% inhibition at 0.21 nM” value is 25% and the “% inhibition at 0.62 nM” value was determined as 9%. In addition, the “% inhibition at 1.9 nM” value is 68%, the “% inhibition at 5.6 nM” value worked out at 115%, the “% inhibition at 16.7 nM” value was found to be 124% and the IC50 was 1.73 nM.

Consider B3, for which the “% inhibition at 0.020 nM” value turned out to be 6%, the “% inhibition at 0.070 nM” value is -3%, the “% inhibition at 0.21 nM” value was found to be 14% and the “% inhibition at 0.62 nM” value worked out at 27%. Besides, the “% inhibition at 1.9 nM” value was 45%, the “% inhibition at 5.6 nM” value stood at 119%, the “% inhibition at 16.7 nM” value was 111% and the IC50 was determined as 2.05 nM.

As to B4, the “% inhibition at 0.020 nM” value came out at 10%, the “% inhibition at 0.070 nM” value came to 14%, the “% inhibition at 0.21 nM” value is 33% and the “% inhibition at 0.62 nM” value stood at 22%. Moreover, the “% inhibition at 1.9 nM” value turned out to be 68%, the “% inhibition at 5.6 nM” value amounted to 125%, the “% inhibition at 16.7 nM” value was determined as 121% and the IC50 stood at 1.88 nM.

In another experiment the target is T3, full length human DLL4. Put plainly: FACS competition, unlabeled antibody vs competitor Alexa-647 21H3RK, HEK293 cells with human DLL4. As for the experimental part: The ability of the purified DLL4 antibodies to inhibit the binding of other DLL4 antibodies to human DLL4 was assessed using a FACS assay. Briefly, antibodies were directly labelled with Alexa-647 using a commercially available labelling kit (e.g. Molecular Probes catalog #A30009, A-20186) as per the manufacturer's instructions. To determine the level of cross-competition, unlabelled anti-DLL4 antibodies (final concentration: 10-0.01 μg/ml) diluted in PBS containing 2% FCS were added to DLL4-expressing HEK 293 cells (as described in example 6; 50000 cells/well diluted in PBS containing 2% FCS) and incubated for 1 h at 4° C. Subsequently, Alexa-647 labeled anti-DLL4 antibodies were added at a final concentration of 0.1 μg/ml and plates were incubated for a further 1 h at 4° C. prior to washing and reading on a FACSCalibur instrument. Data that summarizes the ability of unlabeled antibodies (10, 1, 0.1 μg/ml) to compete with labeled 21H3RK for binding to human DLL4 is included in FIG. 3. Additional data that summarizes the ability of unlabeled antibodies to compete with labeled 21H3RK and 4B4 for binding to human DLL4 is included in Table 22.
B1 displayed an IC50 of 0.379 µg/mL.

In the case of B2, the 50% inhibitory concentration (IC50) is 0.248 µg/mL.

In turn, B3 showed a 50% inhibitory concentration (IC50) of 0.723 µg/mL.

Turning to B4, the half-maximal inhibitory concentration (IC50) came out at 0.596 µg/mL.

These data come from patent publication US20100196385A1 (AstraZeneca / MedImmune, published 2010).
